# According to patent US20050175724A1, “Composition for modulating a physiological reaction or inducing an immune response” (priority 2002, published 2005):
# B1: lyophylized ovalbumin: individual protease inhibitor component of the Oralject cocktail (protein, UniProt P01012 2-386, looked up)
# Ovalbumin: GSIGAASMEFCFDVFKELKVHHANENIFYCPIAIMSALAMVYLGAKDSTRTQINKVVRFDKLPGFGDSIEAQCGTSVNVHSSLRDILNQITKPNDVYSFSLASRLYAEERYPILPEYLQCVKELYRGGLEPINFQTAADQARELINSWVESQTNGIIRNVLQPSSVDSQTAMVLVNAIVFKGLWEKAFKDEDTQAMPFRVTEQESKPVQMMYQIGLFRVASMASEKMKILELPFASGTMSMLVLLPDEVSGLEQLESIINFEKLTEWTSSNVMEERKIKVYLPRMKMEEKYNLTSVLMAMGITDVFSSSANLSGISSAESLKISQAVHAAHAEINEAGREVVGSAEAGVDAASVSEEFRADHPFLFCIKHIATNAVLFFGRCVSP
# B2: spray-dried ovalbumin: individual protease inhibitor component of the Oralject cocktail (protein, UniProt P01012 2-386, looked up)
# Ovalbumin: GSIGAASMEFCFDVFKELKVHHANENIFYCPIAIMSALAMVYLGAKDSTRTQINKVVRFDKLPGFGDSIEAQCGTSVNVHSSLRDILNQITKPNDVYSFSLASRLYAEERYPILPEYLQCVKELYRGGLEPINFQTAADQARELINSWVESQTNGIIRNVLQPSSVDSQTAMVLVNAIVFKGLWEKAFKDEDTQAMPFRVTEQESKPVQMMYQIGLFRVASMASEKMKILELPFASGTMSMLVLLPDEVSGLEQLESIINFEKLTEWTSSNVMEERKIKVYLPRMKMEEKYNLTSVLMAMGITDVFSSSANLSGISSAESLKISQAVHAAHAEINEAGREVVGSAEAGVDAASVSEEFRADHPFLFCIKHIATNAVLFFGRCVSP
# B3: bovine GH: bovine growth hormone (protein, UniProt P01246 27-217, looked up)
# Somatotropin: AFPAMSLSGLFANAVLRAQHLHQLAADTFKEFERTYIPEGQRYSIQNTQVAFCFSETIPAPTGKNEAQQKSDLELLRISLLLIQSWLGPLQFLSRVFTNSLVFGTSDRVYEKLKDLEEGILALMRELEDGTPRAGQILKQTYDKFDTNMRSDDALLKNYGLLSCFRKDLHKTETYLRVMKCRRFGEASCAF
# B4: recombinant bST: recombinant bovine somatotropin (Monsanto Co.) (protein, UniProt P01246 27-217, looked up)
# Somatotropin: AFPAMSLSGLFANAVLRAQHLHQLAADTFKEFERTYIPEGQRYSIQNTQVAFCFSETIPAPTGKNEAQQKSDLELLRISLLLIQSWLGPLQFLSRVFTNSLVFGTSDRVYEKLKDLEEGILALMRELEDGTPRAGQILKQTYDKFDTNMRSDDALLKNYGLLSCFRKDLHKTETYLRVMKCRRFGEASCAF
# Legend:
# [1] = in vivo; cited from earlier work
# [2] = delivered together with deoxycholate; cited from earlier work
# [3] = system: proteolytic enzyme; assay: In vitro proteolytic enzyme inhibition (casein digestion by intestinal enzyme extract); type: biochemical, rainbow trout; conditions: increasing level of inhibitor inclusion; FIGS. 5-12
# Protocol: • 1. Centrifuge Sorvall model • 2. Bench-top blender • 3. Dissecting material (scissors) • 4. Centrifuge bottle • 5. Disposable cuvettes for spectrophotometer • 6. Microcentrifuge tubes 1.5 ml • 7. Spectrophotometer • 8. Vortexer • 9. Microplates reader from Biorad • 10. 50 mM Tris-HCl pH=7.5 • 11. Commassie blue staining solution • 12 BSA (1 mg\ml) standard solution • 13 TCA 20% • 14. Rainbow trouts pancreatic and duodenal tissues • 15.0.5% casein in 50 mM Tris-HCl pH=9 • 16.50 mM Tris-HCl+CaCl2 10 mM pH=7.5 Enzyme Extract • 1. Rainbow trout were weighed and sacrificed. • 2. Dissection was performed to remove the proximal small intestine from the fish. • 3. After weighing, the tissues were homogenised in 50 mM Tris-HCl ph=7.5 (1:10 w\v). • 4. Centrifuge at 16000×g for 30 min at 4° C. • 5. Keep the supernatant. Aliquot and store them at −20 C for further use. • 6. Perform Commassie assay to measure the amount of protein present in the enzyme extract. Commassie Blue Stain Protocol • 1. Weigh 160 mg of BSA in 10 ml of […] Tris-HCl pH=7.5. • 2. […] Read at 655 nm with the microplate reader from Biorad. […] Centrifuge at 12000×g for 5 min and read at 280 nm. […] Centrifuge at 12000×g for 5 min and read at 280 nm. […] Centrifuge at 12000×g for 5 min and read at 280 nm. […] Centrifuge at 12000×g for 5 min and read at 280 nm. […] Centrifuge at 12000×g for 5 min and read at 280 nm. […]
# [4] = system: salmonids; conditions: in vivo; cited from earlier work
# [5] = system: rainbow trout; assay: Growth enhancement, intraperitoneal bST; type: in vivo, Oncorhynchus mykiss; conditions: IP 20 μg bST/g live body weight weekly for 6 weeks
# Protocol: Intraperitoneal (IP) administration dose per fish weekly was 20 μg bST/g live body weight for 6 weeks.
molecule,measurement,setting,value
horseradish peroxidase,time to transport to the circulation after oral administration,[1],≤ 1 h
recombinant human GH: recombinant human growth hormone,enhancement of oral absorption,[2],≤ 1000 fold
B1,in vitro proteolytic enzyme inhibition,[3],affect to differing degrees
B2,in vitro proteolytic enzyme inhibition,[3],affect to differing degrees
B3,increase in growth rate,[4],two to three-fold
B4,body weight gain,[5],significantly induces increased body weight gain
